# According to PMC11033526 (2023):
# No end group written: not given here. *: point of attachment. Biotin = O=C1N[C@H]2[C@H](CS[C@H]2CCCCC(=O)*)N1
# Columns and labels:
# mouse calmodulin [1] = target: T1, mouse calmodulin (mouse, UniProt P0DP26 1-149); assay: SPR; 1 mM EGTA (no Ca2+)
# mouse calmodulin [2] = target: T1, mouse calmodulin; assay: SPR; 1 mM EGTA (no Ca2+); remark: listed apart in the source
binder,measurement,setting,value
Biotin-GGSGGSPKCYMILFYPERNTSAYFNSMIQGYTMRKS [biotin-mT1r2 CT peptide (cytosolic C-terminal region of mouse taste receptor type 1 subunit 2)],koff,mouse calmodulin [1],0.00207 s⁻¹
same,Kd,mouse calmodulin [2],9.7 µM
